Laboratory results from US20250129166A1 (Five Prime, published 2025).
Positions count from the first letter of the chain named.

B1: P1-072006 (P1-061029_Y32E) (antibody, human IgG1, kappa, V domains shown)
VH: EVQLVESGGGLVQPGKSLRLSCAASGFTLDDEAMHWVRQAPGKGLEWVSGINWNSANIGYADSVKGRFTISRDNAKNSLYLQMNSLRTEDTALYYCAKVPGYSGGWIDAFDVWGQGTMVTVSS
VL: not shown
notes: also called P1-72006
B2: P1-072002 (P1-061029_F100fE) (antibody, human IgG1, kappa, V domains shown)
VH: B1 VH with E32Y, F110E
VL: not shown
notes: also called P1-72002
B3: P1-071793 (P1-070916_HC_K16R_T84A, FW revertant) (antibody, V domains shown)
VH: B1 VH with K16R, D30E, E32Y, T88A, F110E, V112D
VL: not shown
notes: VH/VL only
B4: P1-071771 (P1-068767_HC_K16R, FW revertant) (antibody, V domains shown)
VH: B1 VH with K16R, D30E, E32Y, N52D, A56E, F110E, V112D
VL: not shown
notes: VH/VL only
B5: P1-072008 (P1-061029_Y32E_F100fE) (antibody, human IgG1, kappa, V domains shown)
VH: B1 VH with F110E
VL: not shown
notes: also called P1-72008
B6: P1-071769 (P1-068767_HC_K16R_T84A, FW revertant) (antibody, V domains shown)
VH: B1 VH with K16R, D30E, E32Y, N52D, A56E, T88A, F110E, V112D
VL: not shown
notes: VH/VL only
B7: P1-071767 (P1-068761_HC_T84A, FW revertant) (antibody, V domains shown)
VH: B1 VH with D30E, A56E, N57E, T88A, G104H, F110E
VL: not shown
notes: VH/VL only
B8: P1-071783 (P1-070906_HC_K16R, FW revertant) (antibody, V domains shown)
VH: B1 VH with K16R, D30E, E32Y, A56E, F110E, V112D
VL: not shown
notes: VH/VL only
B9: P1-071763 (P1-068761_HC_K16R_T84A, FW revertant) (antibody, V domains shown)
VH: B1 VH with K16R, D30E, A56E, N57E, T88A, G104H, F110E
VL: not shown
notes: VH/VL only
B10: P1-071787 (P1-070908_HC_K16R_T84A, FW revertant) (antibody, V domains shown)
VH: B1 VH with K16R, D30E, E32Y, N52D, T88A, F110E, V112D
VL: not shown
notes: VH/VL only
B11: P1-071773 (P1-068767_HC_T84A, FW revertant) (antibody, V domains shown)
VH: B1 VH with D30E, E32Y, N52D, A56E, T88A, F110E, V112D
VL: not shown
notes: VH/VL only
B12: P1-071785 (P1-070906_HC_T84A, FW revertant) (antibody, V domains shown)
VH: B1 VH with D30E, E32Y, A56E, T88A, F110E, V112D
VL: not shown
notes: VH/VL only
B13: P1-071765 (P1-068761_HC_K16R, FW revertant) (antibody, V domains shown)
VH: B1 VH with K16R, D30E, A56E, N57E, G104H, F110E
VL: not shown
notes: VH/VL only
B14: P1-071797 (P1-070916_HC_T84A, FW revertant) (antibody, V domains shown)
VH: B1 VH with D30E, E32Y, T88A, F110E, V112D
VL: not shown
notes: VH/VL only
B15: P1-071781 (P1-070906_HC_K16R_T84A, FW revertant) (antibody, V domains shown)
VH: B1 VH with K16R, D30E, E32Y, A56E, T88A, F110E, V112D
VL: not shown
notes: VH/VL only
B16: P1-071777 (P1-070868_HC_K16R, FW revertant) (antibody, V domains shown)
VH: B1 VH with K16R, D30E, N57E, G104H, F110E
VL: not shown
notes: VH/VL only
B17: P1-071795 (P1-070916_HC_K16R, FW revertant) (antibody, V domains shown)
VH: B1 VH with K16R, D30E, E32Y, F110E, V112D
VL: not shown
notes: VH/VL only
B18: P1-070868 (P1-068761_E55A) IgG1.3 (antibody, V domains shown)
VH: B1 VH with D30E, N57E, G104H, F110E
VL: not shown
notes: IgG1.3
B19: P1-071789 (P1-070908_HC_K16R, FW revertant) (antibody, V domains shown)
VH: B1 VH with K16R, D30E, E32Y, N52D, F110E, V112D
VL: not shown
notes: VH/VL only
B20: P1-072004 (P1-061029_V102D) (antibody, human IgG1, kappa, V domains shown)
VH: B1 VH with E32Y, V112D
VL: not shown
notes: also called P1-72004
B21: P1-072000 (P1-061029_F100fE_V102D) (antibody, human IgG1, kappa, V domains shown)
VH: B1 VH with E32Y, F110E, V112D
VL: not shown
notes: also called P1-72000
B22: P1-071791 (P1-070908_HC_T84A, FW revertant) (antibody, V domains shown)
VH: B1 VH with D30E, E32Y, N52D, T88A, F110E, V112D
VL: not shown
notes: VH/VL only
B23: P1-071775 (P1-070868_HC_K16R_T84A, FW revertant) (antibody, V domains shown)
VH: B1 VH with K16R, D30E, N57E, T88A, G104H, F110E
VL: not shown
notes: VH/VL only
B24: P1-071779 (P1-070868_HC_T84A, FW revertant) (antibody, V domains shown)
VH: B1 VH with D30E, N57E, T88A, G104H, F110E
VL: not shown
notes: VH/VL only
B25: P1-068761_E30D (antibody, human IgG1, kappa, V domains shown)
VH: B1 VH with A56E, N57E, G104H, F110E
VL: not shown
notes: also called P1-070864
B26: P1-068761_E30D_E55A (antibody, human IgG1, kappa, V domains shown)
VH: B1 VH with N57E, G104H, F110E
VL: not shown
notes: also called P1-070890
B27: P1-068761_E30D_H100G (antibody, human IgG1, kappa, V domains shown)
VH: B1 VH with A56E, N57E, F110E
VL: not shown
notes: also called P1-070894
B28: P1-068761_H100G (antibody, human IgG1, kappa, V domains shown)
VH: B1 VH with D30E, A56E, N57E, F110E
VL: not shown
notes: also called P1-070872
B29: P1-068761_E56N (antibody, human IgG1, kappa, V domains shown)
VH: B1 VH with D30E, A56E, G104H, F110E
VL: not shown
notes: also called P1-070870
B30: P1-068761_E55A_E56N (antibody, human IgG1, kappa, V domains shown)
VH: B1 VH with D30E, G104H, F110E
VL: not shown
notes: also called P1-070878
B31: P1-068761_E56N_H100G (antibody, human IgG1, kappa, V domains shown)
VH: B1 VH with D30E, A56E, F110E
VL: not shown
notes: also called P1-070900
B32: P1-068761_E30D_E56N (antibody, human IgG1, kappa, V domains shown)
VH: B1 VH with A56E, G104H, F110E
VL: not shown
notes: also called P1-070892

target: T1, monovalent hVISTA-ECD (amino acids 32-193 of SEQ ID NO: 1 with a 7xHis tail) (human, UniProt Q9H7M9 33-193); assay: SPR, mAb on Protein A, 37C, pH 6.0
T1 construct: also called huVISTA-His; human VISTA-ECD
Description: (§1) Binding of several preparations of each of the '029 progeny clones and of the parent '029 antibodies, formatted as IgG1.3 antibodies, to human VISTA at pH 6.0 and 7.4 was measured by Surface plasmon resonance (SPR). SPR analysis was performed to measure koff and KD binding affinity measurements for VISTA Abs at acidic and neutral pHs using a Biacore® T100 instrument (GE Healthcare). Protein A (ThermoFisher Scientific catalog #21181) was diluted to 20 μg/ml in 10 mM sodium acetate pH 4.5 and immobilized onto flow cells of a CM5 biosensor following the manufacturer's amine coupling protocol (GE Healthcare), targeting 2,000 RU immobilization density of Protein A per flow cell. SPR experiments were conducted at 37° C. using PBST (137 mM sodium chloride, 2.7 mM potassium chloride, 10 mM phosphate buffer, 0.05% Tween® 20) running buffer at pH 7.4 and 6.0. Antibodies were diluted to 25 nM in PBST pH 7.4, and were captured across active biosensor flow cells at 5 ul/min for 60 seconds. A concentration series of 50-5 nM monovalent hVISTA-ECD (SEQ ID NO: 325) was prepared in pH 7.4 and 6.0 running buffers, and was injected over the captured antibodies at 40 ul/min to measure association and dissociation. Two 15 second injections of 10 mM glycine pH 1.5 were used to regenerate the Protein A capture surface between assay cycles. Rate constants ka (kₒₙ) and kd (koff) were derived from reference flow cell and 0 nM blank-subtracted sensorgrams, and were fit to a 1:1 binding model in Biacore® T200 Evaluation Software v.2.0. The affinity constant, KD was calculated as the ratio of rate constants koff/kₒₙ for each VISTA antibody.

T1 sequence (Q9H7M9 other isoform, or with tags, fused parts or gaps limits assumed): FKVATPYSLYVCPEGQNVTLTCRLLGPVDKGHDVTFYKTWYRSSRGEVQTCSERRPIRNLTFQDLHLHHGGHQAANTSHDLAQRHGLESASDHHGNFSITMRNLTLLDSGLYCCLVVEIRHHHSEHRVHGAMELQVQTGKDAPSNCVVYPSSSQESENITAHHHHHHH

Kd [nM] | koff [s⁻¹] | kon [M⁻¹ s⁻¹] | Binder
3.5 | 0.0012 | 340000 | B1
2.5 | 0.0016 | 650000 | B2

target: T1, monovalent hVISTA-ECD (amino acids …); assay: SPR, mAb on Protein A, 37C, pH 7.4
Description: as §1

Kd [nM] | koff [s⁻¹] | kon [M⁻¹ s⁻¹] | Binder
540 | 0.0063 | 12000 | B1
190 | 0.0085 | 44000 | B2

target: T1, monovalent hVISTA-ECD (amino acids …); assay: SPR, mAb on Protein A, 37C, pH 6.0; pH 6.0
Description: as §1

Kd [nM] | koff [s⁻¹] | kon [M⁻¹ s⁻¹] | Binder
8.1 | 0.0017 | 210000 | B3
11 | 0.0026 | 250000 | B4
88 | 0.024 | 270000 | B5
11 | 0.0026 | 240000 | B6
5.1 | 0.0016 | 310000 | B7
7.6 | 0.0017 | 220000 | B8
4.9 | 0.0014 | 290000 | B9
13 | 0.0027 | 210000 | B10
9.8 | 0.0026 | 270000 | B11
6.7 | 0.0017 | 250000 | B12
5 |  | 280000 | B13
7.7 | 0.0017 | 220000 | B14
7.7 | 0.0017 | 220000 | B15
6.4 | 0.0017 | 270000 | B16
8.1 | 0.0017 | 210000 | B17
7 | 0.0018 | 260000 | B18
13 | 0.0026 | 210000 | B19
180 | 0.025 | 140000 | B20
12 | 0.0023 | 200000 | B21
11 | 0.0027 | 240000 | B22
6.9 | 0.0017 | 250000 | B23
7 | 0.0018 | 260000 | B24

target: T1, monovalent hVISTA-ECD (amino acids …); assay: SPR, mAb captured on Protein A, hVISTA-ECD analyte, 37 C, pH 6.0
Description: (§2) Binding kinetics were measured using a Biacore® T100 instrument (GE Healthcare). Protein A (ThermoFisher Scientific catalog #21181) was diluted to 20 μg/ml in 10 mM sodium acetate pH 4.5 and immobilized onto flow cells of a CM5 biosensor following the manufacturer's amine coupling protocol (GE Healthcare), targeting 2,000 RU immobilization density of Protein A per flow cell. The assay was conducted at 37° C. using PBST (137 mM sodium chloride, 2.7 mM potassium chloride, 10 mM phosphate buffer, 0.05% Tween 20) running buffer at pH 7.4, 6.7 and 6.0. Antibodies were diluted to 25 nM in PBST pH 7.4, and were captured across active biosensor flow cells at 5 ul/min for 40 seconds. A concentration series of 100-10 nM monovalent hVISTA-ECD (SEQ ID NO: 325) was prepared in pH 7.4, 6.7 and 6.0 running buffers, and was injected over the captured antibodies at 40 ul/min to measure association and dissociation. Two 15 second injections of 10 mM glycine pH 1.5 were used to regenerate the Protein A capture surface between assay cycles. Rate constants ka (kon) and kd (koff) were derived from reference flow cell and 0 nM blank-subtracted sensorgrams, and were fit to a 1:1 binding model in Biacore® T200 Evaluation Software v.2.0.
(§3) The affinity constant, KD was calculated as the ratio of rate constants koff/kₒₙ for each VISTA antibody. The % Rmax was calculated to compare how pH affects an antibody's binding capacity for VISTA, and represents the measured maximal VISTA binding response relative to the expected maximal VISTA binding response. The % Rmax is defined as the ratio of the reference-subtracted ‘binding’ report point response at the end of the 100 nM VISTA injection for each antibody (Rmax) relative to the expected VISTA binding response (Rexp). Rexp is calculated as Rexp=[(VISTA-ECD molecular weight/mAb molecular weight)×(mAb ‘capture’ report point response (RUs)]×2 binding sites per mAb.

koff [s⁻¹] | Binder
0.0062 | B25
0.0074 | B26
0.021 | B27
0.0052 | B28
0.0055 | B29
0.0056 | B30
0.0081 | B31
0.0017 | B18
0.034 | B32

target: T1, monovalent hVISTA-ECD (amino acids …); assay: SPR, mAb captured on Protein A, hVISTA-ECD analyte, 37 C, pH 6.7
Description: as §2, §3

koff [s⁻¹] | Binder
0.018 | B25
0.014 | B28
0.029 | B30
0.0064 | B18
